Measurements as given in patent publication US20260166131.

Target: custom-expressed human TDP-43 (Nanjing GenScript Biotechnology Co., Ltd., C134WHE160-2/P5HF001), Q13148
Sequence (Q13148 whole entry): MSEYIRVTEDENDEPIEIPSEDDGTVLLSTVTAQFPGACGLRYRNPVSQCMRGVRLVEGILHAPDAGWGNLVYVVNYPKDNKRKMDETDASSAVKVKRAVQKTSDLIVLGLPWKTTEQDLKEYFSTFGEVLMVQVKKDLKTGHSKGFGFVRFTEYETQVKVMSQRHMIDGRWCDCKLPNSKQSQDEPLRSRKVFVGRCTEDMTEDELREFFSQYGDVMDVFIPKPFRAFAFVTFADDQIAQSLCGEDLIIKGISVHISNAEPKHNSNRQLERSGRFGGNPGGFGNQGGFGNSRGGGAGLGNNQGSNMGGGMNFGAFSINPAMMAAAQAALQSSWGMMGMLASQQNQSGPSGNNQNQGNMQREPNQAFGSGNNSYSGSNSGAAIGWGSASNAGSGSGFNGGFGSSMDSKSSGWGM

B1: human plasminogen purified from human donor plasma (protein)
chain: KVYLSECKTGNGKNYRGTMSKTKNGITCQKWSSTSPHRPRFSPATHPSEGLEENYCRNPDNDPQGPWCYTTDPEKRYDYCDILECEEECMHCSGENYDGKISKTMSGLECQAWDSQSPHAHGYIPSKFPNKNLKKNYCRNPDRELRPWCFTTDPNKRWELCDIPRCTTPPPSSGPTYQCLKGTGENYRGNVAVTVSGHTCQHWSAQTPHTHNRTPENFPCKNLDENYCRNPDGKRAPWCHTTNSQVRWEYCKIPSCDSSPVSTEQLAPTAPPELTPVVQDCYHGDGQSYRGTSSTTTTGKKCQSWSSMTPHRHQKTPENYPNAGLTMNYCRNPDADKGPWCFTTDPSVRWEYCNLKKCSGTEASVVAPPPVVLLPDVETPSEEDCMFGNGKGYRGKRATTVTGTPCQDWAAQEPHRHSIFTPETNPRAGLEKNYCRNPDGDVGGPWCYTTNPRKLYDYCDVPQCAAPSFDCGKPQVEPKKCPGRVVGGCVAHPHSWPWQVSLRTRFGMHFCGGTLISPEWVLTAAHCLEKSPRPSSYKVILGAHQEVNLEPHVQEIEVSRLFLEPTRKDIALLKLSSPAVITDKVIPACLPSPNYVVADRTECFITGWGETQGTFGAGLLKEAQLPVIENKVCNRYEFLNGRVQSTELCAGHLAGGTDSCQGDSGGPLVCFEKDKYILQGVTSWGLGCARPNKPGVYVRVSRFVTWIEGVMRNN
**Q.** B1 was tested. Which “Western blot and band density of TDP-43 after 3 h at 37 C with plasminogen in normal mouse brain homogenate” value did it give?
**A.** the amounts of TDP-43 monomer, HMW and LMW in the plasminogen group are significantly lower than those in the vehicle control group
